Experimental data: the DeepSol protein solubility set

Test: soluble on expression in E. coli; label from the status in PepcDB or PDB records

Sequence | soluble on expression in E. coli
MHGSQKDTTFTKIFVGGLPYHTTDASLRKYFEGFGDIEEAVVITDRQTGKSRGYGFVTMADRAAAERACKDPNPIIDGRKANVNLAYLGAKPRSLQTGFAIGV | soluble
MAHHHHHHMDPNAFLSSFDAIVTLSNTEGPRHNVLEPKFTAREQMQALRESVRNAYKESPSQTAMSQICRCYVFIGFNMLETDEETEGVSEICKAYTLTLFGSKKELLDDVVDIAAHPLEEILRNEVPFVTAEKEYAFVTEFMRVHNALGFYFSNRDVELRINDAKQVLIVAEKAYRAWNDWFHQSFPGHCLMKDIPVLENGTLDRASISPDALPIYIVRFEMDTAFTSTLFFLAQVYTACKMTALASRYCHHTLYHQLLNKMEFSKKDWATNALHLSAFYSSCFDYGKALHCLRAGEYIMPEENANEETLGIVAWAFGKFYLHRLHYYSEVRRNCAPRGHFPDEFEGWWVDFPLDIPPPQPLPAIETFEDARKCFKEANVWFNKALNYYVYDGCCTEHIDIKKDIAQLYAALIPFEENRDRIIAMHQRRIALIELFPSDLNFNAYPTLVRQLLFDLGGMHEEMLEVYIQQKNSPMEGEKPLSDKKINAFADKVQGFYRRFCDTWKEPQTNKIPETIDIDSRLPFFRSLMRLAHLQMKRFFKDPKEEYDNISASIVMFEKAIAFASSNPMNEEADAEVQLAREMATLLPVRQKDLWRVYHNAV | not soluble
AGHRGQCVGRHREVVAIDNSKATNPHAADSALAGFSSVVWVAGGQLKGAEIDELIVRHAGRIKAVALLGVDRDVIEDSVRTHIPGIPVLSVSETDPRRAMDEAVAWSVSQAEAGDAIVLAPAAASLDMYTGMGQRGDMFATAI | not soluble
MGSDKIHHHHHHMPGPYNEMDVAISYIHNHLYEPLSLSHIASYVGYSSYHFSRLFKEKTGLSPLYYVSSLRLQKAKELLLNTNLTVRDIGLEIGQQSLGTFTTRFTKCVGMSPSHFRESMNQVNHSLHSLQMLSDWRTSLQSIHPFSTVTGTIDSEAPLEGFILIGLFSKPIPEGLPLYGNLLSSTGAFSFTGVTPGIYYLMATSISWSMQAKDILLPYTTLRGRIKEPIIVTSSPSILEYSLTLHTPRLDDPPILISLPLLMKNFLKARIAT | not soluble
GYIVDMSKWNGSPDWDTAKGQLDLVIARVQDGSNYVDPVYKDYVAAMKARNIPFGSYAFCRFVSVEDAKVEARDFWNRGDKDSLFWVADVEVTTMSDMRAGTQAFIDELYRLGAKKVGLYVGHHKYEEFGAAQIKCDFTWIPRYGAKPAYPCDLWQYDEYGQVPGIGKCDLNRLNGDKSLDWFTGKGEE | soluble
MQQQETFRHILSVLVQDVDGIISRVSAMFTRRSFSLVSFVSGKTEMHGINRITIVVDASTQDIEQITKQLNKLIPVLKVVRLDEDVTVARALMLVKVSADASNRPQVVDAAKIFRAHVVDVAPDSVVIEATGNKGKLRALLDVLEPFGIRELISSGQIALNRGSKTMAPQSSRS | not soluble
MGSDKIHHHHHHMGQVSGCFATSYAEARQKFLAAARGAGATLAEFPHPTRRGSAGEDLAMDVAWVGPADARRVLIISSGVHGVEGFCGSGAQVALLSDSILLADCAEARLGLLVVHAVNPYGFSHLRRVNEDNVDLNRNFMDFAQPLPDNAPYAEIAPMLLPTHWPPSGEEQAQFMKAVAEKGMDWYQTAVSSGQYQDPKGLFYGGNKETWSNYTLRRVLARFGSARGSLRWIDIHTGLGPWGYGEPICMGPDDDGQLKRTRAIWGGEVTSIYDGSSSSARLTGLAWEAVPGTLPDVDYAGIALEFGTLPVAEVLDALRGDHWLYLHPEADENQRTLVRQAMWRAFYGDAYDWRAGVVEQVTEAVRKAMRAR | not soluble
MSSGNRQAPMPPPKPRNLGRGQFYQQGGYLTPQDSDTDSGISADCDQGSPRAAAGFGGTGFNGTVNGQQVNSQRRIPDLPPGAYQNYRSHSSADYLTPNSARKIASYSTTPRRLPLQPQQQAPATATKAKYRVRFADEVDSGASTSSGTSSTHISPRNDPQEMLMNSAVGAPQITSTFQQPASYMQNSSDAQYKMNKIEYPPVSRTPPVACSSRTGTLQRTPNRRLPISSTPQPQPTYADQMQSLPEPPPYTIAMQRLRSVEQQPQESFRDAFIRKSVNDTLQRRYRQRSSSLPRGNKSYYEGIDIYDAQPPIRPLPQQQTSLMTVANQLPGSLDNLHINNLNMRRRKLPTAPLMGSSCQLHLDNSDELTAYRALQFQMMQDELQRQQPPPQSFERPTLLRRTNMPQQQSFNIPHITTTGPPPPAMGLSVPVQYDQGEYGTQSVRAQLVALDQRGFRRVLVEKMMPGPFGFYIATGVVAGQRAGIFISRVSLPSLSPMLTVGDEIIYVDEEYVKGRSLEYVQSLRIFEFQTELITEEPPHKQVIFM | not soluble
MTKKVVVHQIVGHRFLGVNEQGDKVMIDGDQPSTGPRPMELLLMALGACTAYDVVDIMRKKKQPLARYRVEVEGERAETHPRRYTRITVTHIASGPGVTLEALERAVHLSHTKYCSVSATLNAEITTRVVLEPWEGEEGEG | soluble
MPKIISKRKFNILRKTKEEIFSQIVYTKKRNGLHKAAKEYYFKDKDFTIIEDQQDRPDKPEELDTPDIPKPPKPPKGPDQPEEPGQPGGPDDPNSGNKKMPKPDEFVTHRQLQEFKKDLLVELHEIFPTKPELKRVEEKVDVLFELQKAQGEQIRIQGEQIKELKVEQKAQGETLQLILQTLQKMNDRLDKIEGKMDKMESRMDKMETRLDKLESKLEHHHHHH | not soluble
MGHHHHHHSHKLEEAYEPNQVAISLIGEPTLYPMLPELIEEYKKRGFTTFLVTNGTNPDMLEKVKPTQLYLSLTAFDEDSHLVLNRPGKSNWERVLRSLEVMRDSGSRTVIRLTLIRGYNMDEEAIRKYSELIEMAEPDFIEAKAYMYLGYSRLRLRWGNMPEHADIVEFSRKLADSTGYEVKRESEPSRVVL | not soluble
MGSDKIHHHHHHMEDLQRLYPIGIQTFSKIREGNFLYVDKTEYVYRMTHSASSYMFLSRPRRFGKSLLTSTLHSYFSGREELFRGLAMEKLEKEWIQYPVLHFDMSMAKHVDKDKLMNLLDFMLTEHERTLGIDAAGTDPNLRLTNLIKRAYEQTGRKVVVLIDEYDAPLLDVVHERENLGVLRDVMRNFYSPLKACDPYLRYVFLTGITKFSQLSIFSELNNIKNISMDEPYAAICGITENEILTQMKEDVDRMAVKLNITAEEVLAKLKENYDGYHFTYPSPDIYNPFSLLNAFADGKFNSYWFGSGTPTYLIKMLDKFGVEPSEIGNKLAAVEEFDAPTETMSSITPLLYQSGYVTIKDYDKELELYTLDIPNKEVRVGLMRSLLPYYVTNDTREATNMVAFISRDIR | not soluble
MLCVRRRCISAPMTDTTILPRPEVSGDFLVAALYHFARLPRFESLREQLFELCQKNGVKGTLLLAAEGINGTIAGPDAGVQAVLSFLRAQPEFAALEHKESRASHMPFVRLKVKLKKEIVTMGVPDIDPNRIVGTYVDPRDWNALISDPDTIVIDTRNDYETAIGVFKGAVDPQTKTFREFPDWVKNNPGLHNKPKIAMYCTGGIRCEKATAFMKEQGFDEVYHLKGGILKYLEEVPEEESLWEGACFVFDERVSVVHGLAEGDHQLCHACRNPITPDVRLSPKFEEGVSCPSCYDERSEDDRQRFRDRQQQIELAKTRGERHLGRLEHHHHHH | soluble
GNKIPTTMAFRTVTDVDNAVNGLYDLMSGSGYYGAAMFAYGDMKGDDMQSSEESGVCNTCYMFNHRPNSLNAGSLWGRPFYILREAWNILNAIAEGKIESGDEKKLNALKGETMAVIALCQFDLTRCFGYPYTKDKGASLGAPLIDHLVGTYENPPRSTVAQAYDFIIETLEEAVTLMSEEKNNGRMNKYAARALLARIYLYHDDNRKAFDLADQLIKDADTSGSYALYPHEKYVAAWSVEAKFGSESFFEIANSVDDTPGRDSWGYLLNWYGYQKGFVTQKYAEQMLADPGDVRGHLLEENKYAGKTVWWLYKLRGTDLKTAPLECNNVVLRLSEVYLIAAEAGCKLGGDAAVQGLGYLNEIVKRGNPDNEVTMADYTLDRVLDERSKELVGEGHRFFDLLRNGKTIVRKGGYHLPSVDEEVDWDFYKCVLPIPEDQFIFSPEMEQNPGYPKN | soluble
GSLRVKFSRSADAPAYQQGQNQLYNELNLGRREEYDVLDKRRGRD | soluble
MSVDKSPVYEVKAVPVEKVLANDYNPNVVAPPEMKLLELSIWEDGFTMPCVCYYNKEEDNYILVDGYHRYTVLKTSKRIYKRENGLLPIVVIDKDLSNRMSSTIRHNRARGMHNIELMCNIVAELDRAGMSDQWIMKNIGMDRDELLRLKQISGLADLFANREFSIPDEVAPTETERKTL | not soluble
TKDFGYSFNANYATNTNEVKALGPGNAPIISTGSVDHAYYITKVGEPIGCYYLLVQDGIFSNEEELKKYPHFSNTQPGDFRFVDVDGDGVMDLDKDRTIVGNYMPDFTYGFGGKVWYKGIDLDFNFQGVYGNEILNLNRRYIDNLEGNTNGTTIALNRWKSADNPGNGQVNRANRKSKGYNGRTSTWHLEDGSYLRLQNVTLGYTLPQNLTRRFFVEKLRVYVSGQNLWTSTNYGGYNPEVNARPSNSLSPGEDYGTYPLAKTFLFGLNITL | not soluble
MRKIIKGREPDAWLKYRCTPGAVYQRKPALADSLLLEQGYVCAYCEKRIDVQDLRVEHIKPRSQYPAQQLSYSNMVACCSGQSQGSAHCDCSKKDEEITLNLFTDALFLSISYKHDGTISSANKSWNDDINITLNLNCLSLKENRKLALEGLLEIIKKEDYSQGVLKRLKARYEAKDKGHKFAEYRGIILYYIDKKLSP | not soluble
MEANSGGGGGAEGGRAVTGGGGGGGGSDVELVSKTLQVEHKLFYFDLKENPRGRYLKISEKTSATRSTIIVPSSGISWFLDLFNYYVNSEEHELFSKELQLDSKVFYFDIGENRRGRFLKVSEASVSRNRSTIIVPAGSSPDEGWAAFRNILAEIHEASGLFVMPNQKPSDGQEHLVDDVGAGFIPGHGSQQPSSSEHNVDRTIDSPGSDRSSIILPLSGLKQFHEVIGHFVEITKDKIEVLILLEDGNFQSSNHLNLATSSRLPDRGVQ | soluble
MGSDKIHHHHHHVSSPNIDIELDALKEAVSVALAHAKKLGSSAAEVAISKQQGLSVSTRTQEVETVEFNKDGALGITVYRGGCKGSSSTSDLSTDAIALAVKAADDIARYTSEDPFSGLADSALMAKNIRDLQLYYPQDIGAEELADLAIRAEKAGVDADTRIKYSDGATANAHTSAKVYANSHGFLQGYCSSRYSLSSVVIGEESDGNMQRDYDYTVSRKFADLLSPEEVGAKAAEKTLSRLDARKIATAKLPVLFAPEIATGLIGHLIGAISGGSLYRKSSFLLDSLHTHIFPDWFSIEEQPHILSGLASANYDSEGVATQDRRIIDRGQLETYLLTSYSARKLGMTNTGHAGGIYNWTLSHSNQTFADLIKAMNTGLIVTEVMGQGVNGVTGDYSRGAAGFYVENGVIQYPVEEITIAGNLKDMFIGIQGVAMDRDLRSSIRTGGILLSEMKIAGN | not soluble
MAHHHHHHMSLAPNTGSVELKAYSAHASLLLARGERIDKRAFDECRLPAIVREERVGGATVAGAGDGSPQSSASSNMTSTYTVLDGKSLAAVMYTDAYGTCIQCTVQGLLGPPRPEQPAAGRLNVHVEAPFVEHLSGGATSTNYRSFQYMIASGNADLPLRQLEGYIGTVLDGCFDLSQLSIYAGEACWVLKVSVLLLSVDGGLRAGSLHAALAALHKLHLPRIRLPNGDVIEGRQVQLSCMPVACTFGFLAGAQVRLVADTTAIEEHVADGLITVVVDEAERILSVHHTGRCPLLAQALTAAAQQWAAASGSMRKALYG | not soluble
MRKKSSSNKEETALHPPPENFETATAELEQIVAGMETGQMSLEDALSAYKRGVELLQYCQNILKNSQQQIKILEADMLKHFSPAEHDAS | not soluble
